Results on 1 molecule are retold here after patent publication CN109897111A (HANGZHOU HANSI BIOLOGICAL MEDICINE CO LTD, dated 2019).

The target in test [1] is T1, hPD-1-hIgGFc抗原 (human, UniProt Q15116 25-167, limits assumed). Kind of test: competition ELISA, hPD-1-hIgGFc coated, competitor PDL1-mIgG2aFc 0.6 μg/ml.
In another test the target is hPD-1-his抗原 (human, UniProt Q15116 25-167, limits assumed). The test can be described thus: ELISA, hPD-1-his coated 0.25 μg/ml. A general note: In an ELISA, binding on a coated surface is turned into a signal by an enzyme label.
Test [2] deals with T1, hPD-1-hIgGFc抗原. Kind of test: competition ELISA, hPD-1-hIgGFc coated, competitor PDL2-his tag 0.6 μg/ml.

T1 sequence (Q15116 25-167 limits assumed): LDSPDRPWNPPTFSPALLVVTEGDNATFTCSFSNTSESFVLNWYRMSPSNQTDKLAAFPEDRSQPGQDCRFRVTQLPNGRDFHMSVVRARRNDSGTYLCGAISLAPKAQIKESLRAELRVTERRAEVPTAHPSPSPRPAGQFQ
hPD-1-his抗原, sequence (Q15116 25-167 limits assumed): as above

B1: 人源化抗体H8 (抗PD-1的IgG类抗体) (antibody, V domains shown)
VH: EVQLVQSGGGLVQPGGSLKLSCAASGFTFSSYGMSWVRQAPGKGLDWVATISGGGRDTYYPDSVKGRFTISRDNSKNNLYLQMNSLRAEDTALYYCARQKGEAWFAYWGQGTLVTVSA
VL: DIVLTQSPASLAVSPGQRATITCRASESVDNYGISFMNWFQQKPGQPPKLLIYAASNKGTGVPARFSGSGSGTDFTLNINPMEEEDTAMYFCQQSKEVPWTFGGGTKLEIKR
notes: HX009-5 is H8 with linker-SIRPA added to the C-terminus of the heavy chain, and both share the light chain; also called HX008
One may read the IC50 as the midpoint of a concentration-inhibition curve. Low values mean higher potency, high ones lower potency. As a reminder, the EC50 is the concentration needed to bring the measured effect to its halfway point. Low readings indicate a more potent agent, high ones a less potent agent. For B1, the IC50 in the test with hPD-1-hIgGFc抗原 [1] was found to be 1 nM; with hPD-1-hIgGFc抗原 [2], 2.7 nM. The molecule also came in with an EC50 with hPD-1-his抗原 of 0.05 nM.
